In patent US6740739B1, “Substitutional variants of APO-2 ligand” (Genentech, Inc., priority 1998, dated 2004):
Changes are numbered by the printed parent chain. Names may count otherwise.

Key:
SK-MES-1 cells = assay: Apoptosis bioassay with crystal violet staining; type: cell-based, human; details: 24 hours, FIGS. 17 and 18
Method: SK-MES-1 human lungcarcinomacells (ATCCHTB 58) were culturedin DMEM:Ham'sF-12 (50:50) media supplemented with 10% FBS, 2 mM L-glutamine, 100 U/ml penicillin, and 100 microgram streptomycin. SK-MES-1 cells were seeded in 96-well Falcon tissue culture treated microplates in a volume of 0.1 ml at a density of 4.0×10^4 cells/well and allowed to attach overnight at 37° C. Apoptosis was induced by adding the various Apo-2L substitutional variants or Apo-2L (consisting of amino acids 91-281 of FIG. 1A; referred to as Apo-2L.2) for 24 hours. Following treatment with the test proteins, the media was removed and the wells were stained for 15 minutes with a 0.5% solution of crystal violet in methanol. The cell number was determined by measuring optical density of the dry plates at 540 nm using a SLT 340 ATC plate reader (Salzburg, Austria).

DR4 = molecular target: T1, DR4 (Homo sapiens, UniProt O00220); assay: BIAcore kinetic binding analysis; details: IgG-receptor fusion DR4 immobilized; significant = >2-fold; FIG. 19
T1 construct: Each of the Apo-2L receptor proteins were prepared as immuno adhesin sessentially as described in Ashkenazi et al; made in house
Method: (§1) For comparison, Apo-2L, consisting of amino acids 91-281 was also tested in the BIAcore for binding to the IgG-receptor fusion molecules. Each of the Apo-2L receptor proteins were prepared as immuno adhesin sessentially as described in Ashkenazi et al., Proc. Natl. Acad. Sci., 88:10535-10539 (1991). The IgG-receptor fusion molecules were immobilized to the CM5 BIAcore chip, research grade (Pharmacia), using NHS-EDC amine coupling chemistry. The Apo-2L alanine-substituted proteins were serially diluted 2-fold from 500 nM to 15.625 nM in the BIAcore running buffer, PBS/0.05% Tween 20, and passed across the sensor chip surface with immobilized receptor. Specific kinetic binding parameters were used to determine the KD value using the BIAcore evaluation software (according to manufacturer's instructions).

DR5 = molecular target: T2, DR5 (Homo sapiens, UniProt O14763); assay: BIAcore kinetic binding analysis; details: IgG-receptor fusion DR5 immobilized; significant = >2-fold; FIG. 19
T2 construct: Each of the Apo-2L receptor proteins were prepared as immuno adhesin sessentially as described in Ashkenazi et al; made in house
Method: as §1

DcR2 = molecular target: T3, DcR2 (Homo sapiens, UniProt Q9UBN6); assay: BIAcore kinetic binding analysis; details: IgG-receptor fusion DcR2 immobilized; significant = >2-fold; FIG. 19
T3 construct: Each of the Apo-2L receptor proteins were prepared as immuno adhesin sessentially as described in Ashkenazi et al; made in house
T3 sequence (Q9UBN6 56-211 limits assumed): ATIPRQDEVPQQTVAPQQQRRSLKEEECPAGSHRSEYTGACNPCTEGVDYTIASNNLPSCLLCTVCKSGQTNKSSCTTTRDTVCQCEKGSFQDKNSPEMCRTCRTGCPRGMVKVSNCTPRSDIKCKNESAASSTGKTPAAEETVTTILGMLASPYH
Method: as §1

OPG = molecular target: T4, OPG (Homo sapiens, UniProt O00300); assay: BIAcore kinetic binding analysis; details: OPGR-IgG immobilized; FIG. 19
T4 construct: made in house
T4 sequence (O00300 22-401): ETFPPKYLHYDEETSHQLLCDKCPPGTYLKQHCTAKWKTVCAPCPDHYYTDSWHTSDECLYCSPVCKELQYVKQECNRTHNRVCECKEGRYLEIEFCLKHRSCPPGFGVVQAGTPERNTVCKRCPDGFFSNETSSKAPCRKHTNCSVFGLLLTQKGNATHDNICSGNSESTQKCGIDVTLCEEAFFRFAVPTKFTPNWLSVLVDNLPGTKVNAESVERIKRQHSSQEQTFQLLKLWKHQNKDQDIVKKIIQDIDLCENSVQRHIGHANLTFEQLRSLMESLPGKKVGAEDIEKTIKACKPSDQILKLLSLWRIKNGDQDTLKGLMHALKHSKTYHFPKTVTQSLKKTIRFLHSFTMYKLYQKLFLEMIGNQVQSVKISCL
Method: as §1

T1 sequence (O00220 24-239 limits assumed): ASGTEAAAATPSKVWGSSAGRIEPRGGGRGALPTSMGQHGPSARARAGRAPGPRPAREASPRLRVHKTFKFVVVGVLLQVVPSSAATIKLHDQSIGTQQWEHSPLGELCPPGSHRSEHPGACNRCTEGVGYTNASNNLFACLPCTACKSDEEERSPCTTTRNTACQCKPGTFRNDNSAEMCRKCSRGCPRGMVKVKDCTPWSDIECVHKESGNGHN
T2 sequence (O14763 56-184 limits assumed): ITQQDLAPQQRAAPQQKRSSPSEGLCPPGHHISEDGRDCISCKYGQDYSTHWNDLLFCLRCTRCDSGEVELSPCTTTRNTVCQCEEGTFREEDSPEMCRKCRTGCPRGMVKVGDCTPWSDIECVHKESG

B1: D218A: Apo-2 ligand amino acids 91-281 with aspartic acid at position 218 substituted by alanine (protein)
chain: MAMMEVQGGPSLGQTCVLIVIFTVLLQSLCVAVTYVYFTNELKQMQDKYSKSGIACFLKEDDSYWDPNDEESMNSPCWQVKWQLRQLVRKMILRTSEETISTVQEKQQNISPLVRERGPQRVAAHITGTRGRSNTLSSPNSKNEKALGRKINSWESSRSGHSFLSNLHLRNGELVIHEKGFYYIYSQTYFRFQEEIKENTKNDKQMVQYIYKYTSYPAPILLMKSARNSCWSKDAEYGLYSIYQGGIFELKENDRIFVSVTNEHLIDMDHEASFFGAFLVG
With B1 the “increased apoptosis-inducing activity when compared to Apo-2L.2” value (SK-MES-1 cells) was “approximately 3 fold”, the “change in binding (KD) compared to Apo-2L.2” value (from here on “change in binding (KD)”) (DR4) was “no significant change” and the “change in binding (KD)” value (DR5) was “no significant change”. For the same molecule, the “change in binding (KD)” value (DcR2) was “no significant change” and the “binding to OPGR-IgG compared to Apo-2L.2” value (OPG) was “tighter binding”.

B2: D269A: Apo-2 ligand amino acids 91-281 with aspartic acid at position 269 substituted by alanine (protein)
chain: B1 chain with A218D, D269A
B2 was tested, and the “increased apoptosis-inducing activity when compared to Apo-2L.2” value (SK-MES-1 cells) was about 7 fold, the “change in binding (KD)” value (DR4) was “no significant change” and the “change in binding (KD)” value (DR5) was “no significant change”. For the same molecule, the “change in binding (KD)” value (DcR2) was “no significant change” and the “binding to OPGR-IgG compared to Apo-2L.2” value (OPG) was “tighter binding”.
